Results reported in paper PMC6219920 (Developmental cell, 2018).

Target: wild type CENP-A complexed with histone H4 (human, UniProt P49450 1-140; P62805 1-103)
Test: pull-down

- binding result: binds
B1: MBP-HJURP^1−208 (domain or fragment)
chain: MLGTLRAMEGEDVEDDQLLQKLRASRRRFQRRMQRLIEKYNQPFEDTPVVQMATLTYETPQGLRIWGGRLIKERNEGEIQDSSMKPADRTDGSVQAAAWGPELPSHRTVLGADSKSGEVDATSDQEESVAWALAPAVPQSPLKNELRRKYLTQVDILLQGAEYFECAGNRAGRDVRVTPLPSLASPAVPAPGYCSRISRKSPGDPAKP
